Reference: publication PMC5845890, “Pathophysiological Consequences of Neuronal α-Synuclein Overexpression: Impacts on Ion Homeostasis, Stress Signaling, Mitochondrial Integrity, and Electrical Activity” (Frontiers in Molecular Neuroscience, 2018)

Target: T1, Soluble domain (residues 1-209) of human Bcl-Xl (human, UniProt Q07817-1 1-209)
T1 construct: residues left at the N-terminus after thrombin cleavage of the 6XHis tag; Bcl-Xl, human, soluble domain, residues 1-209; 15N-labelled for the titration with peptides; BMRB 19521 (Follis et al., 2014) was used only for the chemical shift assignment; also called 15N-Bcl-Xl; source: BL21 E. coli (pET15b), purified (nickel-sepharose, thrombin digestion, reverse IMAC, size exclusion chromatography); …
Experiment: NMR titration; 15N-Bcl-Xl with synthetic α-Syn (1-26) peptides; 1H-15N HSQC at 298 K; Hepes 25 mM pH 7.0, NaCl 50 mM, 10% D2O, 1 mM DTT; ΔδN against ligand concentration fitted by a single binding model; Kd averaged over residues 94, 120, 134 and 196 of Bcl-Xl
Details: both partners purified

T1 sequence (Q07817 other isoform, or with tags, fused parts or gaps): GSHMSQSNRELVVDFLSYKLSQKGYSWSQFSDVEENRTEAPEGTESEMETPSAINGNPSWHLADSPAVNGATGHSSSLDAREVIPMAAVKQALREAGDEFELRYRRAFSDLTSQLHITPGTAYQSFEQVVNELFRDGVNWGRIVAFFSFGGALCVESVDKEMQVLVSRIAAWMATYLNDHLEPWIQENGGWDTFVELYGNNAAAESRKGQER

Kd: 1950 ± 560 µM
B1: N-terminal acetylated alpha-synuclein peptide 1-26 (peptide)
peptide: not shown
modifications: acetyl group at the N-terminus
notes: α-Synuclein, human, residues 1-26; also called α-Syn (1-26) peptide with an acetyl group at the N-terminus; source: synthetic peptide (Fmoc solid-phase synthesis, reversed-phase HPLC)
